In US20230192839A1, “ANTIBODIES HAVING CONDITIONAL AFFINITY AND METHODS OF USE THEREOF” (PFIZER INC., priority 2017, published 2023):

System: human CD33
Test: Biacore SPR binding kinetics of anti-CD33 scFv-Fc clones with or without 10 µM MTX
Outline: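 Kinetics by SPR at 37° C in 10 mM Hepes pH 7.4, 150 mM NaCl, 0.05% Tween-20, with or without 10 µM MTX. Double-referenced data fit globally to Langmuir with mass transport; KD = koff/kon. Where binding was too weak for kinetics, KD or KD limit estimated from response at highest analyte concentration or instrument detection limit.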

[1] = CD33, 0 µM MTX, 37° C., pH 7.4, scFv-Fc

- koff, kinetics toward antigen with 0 µM MTX [1]: 0.018 s⁻¹
- kon, kinetics toward antigen with 0 µM MTX [1]: 40000 M⁻¹ s⁻¹
- Kd (CD33, 10 µM MTX, 37° C., pH 7.4, koff/kon, or estimated from binding response / limit of detection for weak interactions, read-out: KD, kinetics toward antigen with 10 µM MTX): > 9.29 µM
B1: P02_D09: anti-CD33 clone with conditional affinity; VH SEQ ID NO: 35, VL SEQ ID NO: 36; also as scFv in CAR (antibody, V domains shown)
VH: QVQLVESGGGLVQAGGSLRLSCAASRRSSRSWAMHWVRQAPGKGLEWVAVISYDGRLKYYADSVKGRFTISRDNAEYLVYLQMNSLRAEDTAVYYCAAEEGDGGFFDYWGQGTLVTVSS
VL: QSVLTQPPSASGTPGQRVTISCSGSSSNIGSNYVNWYQQLPGTAPKLLIYRNNERPSGVPDRFSGSKSGTSASLAISGLRSEDEADYYCAAWDGSLSGRGVFGTGTKLTVL
modifications: Synthetic Antibody
notes: also as scFv in CAR
- affinity for CD33 in the presence of MTX as compared to absence (in words) (10 µM MTX vs 0 µM MTX): significantly greater affinity toward CD33 (i.e. lower KD) in the absence of MTX than in the presence of MTX
